According to patent US20220402983A1 (Janssen / Centocor, published 2022):
*1 amine or outer side, *2 acyl side, *3 side chain or, on linkers, in order; H or OH if unused. Bridges are numbered along the chain shown (N, C = ends). [ ]: non-standard residue; d: D form. The star is where a group is joined. bMe2Nal(2S,3R) = beta-methyl-2-naphthylalanine (2S,3R), C[C@H](c1ccc2ccccc2c1)[C@H](N[*:1])C(=O)[*:2]; Trp(7-Me) = Cc1cccc2c(C[C@H](N)C(=O)O)c[nH]c12; Phe(4-NH2) = Nc1ccc(C[C@H](N)C(=O)O)cc1; 2Nal = N[C@@H](Cc1ccc2ccccc2c1)C(=O)O; AEF = NCCOc1ccc(C[C@H](N)C(=O)O)cc1; αMeF = C[C@](N)(Cc1ccccc1)C(=O)O; Pen = CC(C)(S)[C@H](N)C(=O)O; αMeK = C[C@](N)(CCCCN)C(=O)O; αMeC = C[C@](N)(CS)C(=O)O; Thp = NC1(C(=O)O)CCOCC1; Ac3c = NC1(C(=O)O)CC1; Propionyl = CCC(=O)*

B1: Compound No. 311 (peptide)
peptide: Ac-[Pen]NT[Trp(7-Me)]K(Ac)[Pen][4PipPhe][2Nal][αMeK]K(Ac)N[αMeF]-NH2
modifications: disulfide 1-6
B2: Compound No. 309 (peptide)
peptide: Ac-[dR][Pen]NT[Trp(7-Me)]K(Ac)[Pen][AEF][2Nal][Ac3c]ENHX-NH2
modifications: disulfide 2-7; not fully specified (residue 14); printed as MeCO-F[(D)Arg]-Pen-N -T-7MeW-K(Ac)-Pen-AEF-2Nal-Acpx-E-N-H-paf-CONH2
B3: Compound No. 308 (peptide)
peptide: Ac-[dR][Pen]NT[Trp(7-Me)]K(Ac)[Pen][AEF](Ac)[2Nal][Ac3c]EN[Thp]-NH2
modifications: disulfide 2-7
SMILES: CC(=O)NCCCC[C@@H]1NC(=O)[C@H](Cc2c[nH]c3c(C)cccc23)NC(=O)[C@H]([C@@H](C)O)NC(=O)[C@H](CC(N)=O)NC(=O)[C@@H](NC(=O)[C@@H](CCCNC(=N)N)NC(C)=O)C(C)(C)SSC(C)(C)[C@@H](C(=O)N[C@@H](Cc2ccc(OCCNC(C)=O)cc2)C(=O)N[C@@H](Cc2ccc3ccccc3c2)C(=O)NC2(C(=O)N[C@@H](CCC(=O)O)C(=O)N[C@@H](CC(N)=O)C(=O)NC3(C(N)=O)CCOCC3)CC2)NC1=O
B4: Compound No. 306 (peptide)
peptide: Ac-[dR][Pen]NT[Trp(7-Me)][Phe(4-NH2)](Ac)[Pen][AEF][2Nal][Ac3c]EN[Thp]-NH2
modifications: disulfide 2-7
SMILES: CC(=O)Nc1ccc(C[C@@H]2NC(=O)[C@H](Cc3c[nH]c4c(C)cccc34)NC(=O)[C@H]([C@@H](C)O)NC(=O)[C@H](CC(N)=O)NC(=O)[C@@H](NC(=O)[C@@H](CCCNC(=N)N)NC(C)=O)C(C)(C)SSC(C)(C)[C@@H](C(=O)N[C@@H](Cc3ccc(OCCN)cc3)C(=O)N[C@@H](Cc3ccc4ccccc4c3)C(=O)NC3(C(=O)N[C@@H](CCC(=O)O)C(=O)N[C@@H](CC(N)=O)C(=O)NC4(C(N)=O)CCOCC4)CC3)NC2=O)cc1
B5: Compound No. 312 (peptide)
peptide: XNTXKXXXKKNF
modifications: MeCO-Pen-N-T-7MeTrp-K(Ac)-Pen-AEF-2Nal-aMeK-K(Ac)-N-bMePhe(S,R)-CONH2; cyclized: Pen-Pen disulfide bond
B6: Compound No. 310 (peptide)
peptide: Ac-[dR]CNT[Trp(7-Me)]K(Ac)[αMeC][AEF][2Nal][Ac3c]EN[Thp]-NH2
modifications: disulfide 2-7
SMILES: CC(=O)NCCCC[C@@H]1NC(=O)[C@H](Cc2c[nH]c3c(C)cccc23)NC(=O)[C@H]([C@@H](C)O)NC(=O)[C@H](CC(N)=O)NC(=O)[C@@H](NC(=O)[C@@H](CCCNC(=N)N)NC(C)=O)CSSC[C@@](C)(C(=O)N[C@@H](Cc2ccc(OCCN)cc2)C(=O)N[C@@H](Cc2ccc3ccccc3c2)C(=O)NC2(C(=O)N[C@@H](CCC(=O)O)C(=O)N[C@@H](CC(N)=O)C(=O)NC3(C(N)=O)CCOCC3)CC2)NC1=O
B7: Compound No. 307 (peptide)
peptide: Propionyl-[dR][Pen]QTWQ[Pen][AEF][bMe2Nal(2S,3R)][Thp]EN[Thp]-NH2
modifications: disulfide 2-7
SMILES: CCC(=O)N[C@H](CCCNC(=N)N)C(=O)N[C@@H]1C(=O)N[C@@H](CCC(N)=O)C(=O)N[C@@H]([C@@H](C)O)C(=O)N[C@@H](Cc2c[nH]c3ccccc23)C(=O)N[C@@H](CCC(N)=O)C(=O)N[C@H](C(=O)N[C@@H](Cc2ccc(OCCN)cc2)C(=O)N[C@H](C(=O)NC2(C(=O)N[C@@H](CCC(=O)O)C(=O)N[C@@H](CC(N)=O)C(=O)NC3(C(N)=O)CCOCC3)CCOCC2)[C@H](C)c2ccc3ccccc3c2)C(C)(C)SSC1(C)C

Molecular target: T1, human IL-23R (interleukin-23 receptor) (human, UniProt Q5VWK5 24-629)
T1 sequence (looked up): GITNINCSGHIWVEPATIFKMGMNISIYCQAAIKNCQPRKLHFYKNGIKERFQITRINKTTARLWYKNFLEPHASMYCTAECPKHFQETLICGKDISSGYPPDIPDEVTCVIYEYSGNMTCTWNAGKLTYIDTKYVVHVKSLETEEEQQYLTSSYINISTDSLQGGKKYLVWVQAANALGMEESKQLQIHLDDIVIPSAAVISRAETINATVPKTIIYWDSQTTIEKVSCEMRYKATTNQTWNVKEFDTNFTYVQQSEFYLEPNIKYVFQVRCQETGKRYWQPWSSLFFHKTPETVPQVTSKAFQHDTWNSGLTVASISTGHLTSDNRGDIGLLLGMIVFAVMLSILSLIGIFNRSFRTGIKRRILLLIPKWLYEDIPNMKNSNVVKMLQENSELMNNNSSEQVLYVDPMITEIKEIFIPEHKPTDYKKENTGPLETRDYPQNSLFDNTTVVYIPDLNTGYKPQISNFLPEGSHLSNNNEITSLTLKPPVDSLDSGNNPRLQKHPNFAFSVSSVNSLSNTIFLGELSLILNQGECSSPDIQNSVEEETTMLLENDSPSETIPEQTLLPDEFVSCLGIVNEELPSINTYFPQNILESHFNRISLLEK
Assay: cell-based or functional assay

Row | Binder | PBMC pSTAT3 IC50 (nM)
1 | B1 | 290
2 | B2 | 8
3 | B3 | 8
4 | B4 | 9.6
5 | B5 | 90
6 | B6 | 9.9
7 | B7 | 52
